These results are taken from publication PMC9096947.

“And” between values parts separate entries of the source, which are not always exact repeats. Identical values can stand only once.

In the data set the test system is CodY (Streptococcus agalactiae (Group B Streptococcus) BM110). Description: EMSA. The note with it: EMSA as in Barbieri et al. 2015 (buffer, salt, pH, temperature not given); 50 nM FAM probe; 5% non-denaturing Tris-glycine polyacrylamide gel; 10 mM each ILV ….

Regarding livKp220 (livK regulatory region, WT), the Kd is 50 nM and 150 nM.

The term Kd denotes the constant that tells how readily two partners part at equilibrium.
